Results on one molecule are retold here after patent publication US20250206836A1 (ONA THERAPEUTICS S L, published 2025).

In test [1] the target is T1, human CD36 (on HEK 293 or SCC25 cells) (human, UniProt P16671 2-472).
T1 construct: Overexpressed transiently or stably on HEK 293 cells, or stably on SCC25 cells; also called huCD36
Kind of test: FACS, HEK 293 cells. (In general: In flow cytometry, cells or beads pass a laser one at a time.)

The target in test [2] is T2, nonhuman primate CD36 (on HEK 293 cells) (cynomolgus monkey / rhesus macaque, UniProt P16671 2-472 (human entry)).
T2 construct: also called non-human primate CD36 (cynomolgus)
T2 sequence (P16671 other isoform, or with tags, fused parts or gaps limits assumed): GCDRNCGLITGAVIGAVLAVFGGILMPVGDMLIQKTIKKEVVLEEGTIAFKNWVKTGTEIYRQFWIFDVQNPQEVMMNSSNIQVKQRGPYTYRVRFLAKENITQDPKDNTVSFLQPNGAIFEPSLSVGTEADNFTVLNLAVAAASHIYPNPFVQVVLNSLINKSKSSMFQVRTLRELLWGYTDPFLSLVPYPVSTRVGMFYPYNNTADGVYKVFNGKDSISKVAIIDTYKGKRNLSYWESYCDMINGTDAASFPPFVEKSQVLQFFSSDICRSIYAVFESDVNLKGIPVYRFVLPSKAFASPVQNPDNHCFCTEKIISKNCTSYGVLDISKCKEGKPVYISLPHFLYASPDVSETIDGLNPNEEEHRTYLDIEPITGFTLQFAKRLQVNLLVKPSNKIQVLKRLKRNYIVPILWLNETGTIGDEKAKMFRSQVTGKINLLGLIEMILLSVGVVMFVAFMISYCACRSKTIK
Kind of test: FACS, HEK 293 cells transiently overexpressing CD36.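 Note: antibody binding to transfected cells detected by flow cytometry with a fluorescent anti-human secondary antibody, EC50 from a four-parameter sigmoidal fit of mean fluorescence intensity.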
Method: (§1) After transiently transfecting the HEK 293 cells with a CD36 expression construct, cells were treated with three-fold serial dilution of each candidate antibody (10 dilutions starting at 500 nM). […] After incubation with the cells, an anti-human fluorescently labelled antibody was added to the cell media, allowed to incubate further, and the unbound antibody was washed off of the cells. Subsequently, the cells were subjected to FACS analysis to determine antibody binding to the cells. The results were fitted to a sigmoidal titration curve. Using a nonlinear regression model, the EC₅₀ values for each antibody were calculated from the GeoMFI and MFI values using the log(agonist) versus response (four parameters) fitting on the data transformed according to X=Log[X] in GraphPad PRISM.

Test [3] has as its target T3, mouse CD36 (on HEK 293 cells) (mouse, UniProt Q08857 1-472).
T3 construct: also called Murine CD36
Described as above.
Method: as §1

T1 sequence (P16671 2-472 limits assumed): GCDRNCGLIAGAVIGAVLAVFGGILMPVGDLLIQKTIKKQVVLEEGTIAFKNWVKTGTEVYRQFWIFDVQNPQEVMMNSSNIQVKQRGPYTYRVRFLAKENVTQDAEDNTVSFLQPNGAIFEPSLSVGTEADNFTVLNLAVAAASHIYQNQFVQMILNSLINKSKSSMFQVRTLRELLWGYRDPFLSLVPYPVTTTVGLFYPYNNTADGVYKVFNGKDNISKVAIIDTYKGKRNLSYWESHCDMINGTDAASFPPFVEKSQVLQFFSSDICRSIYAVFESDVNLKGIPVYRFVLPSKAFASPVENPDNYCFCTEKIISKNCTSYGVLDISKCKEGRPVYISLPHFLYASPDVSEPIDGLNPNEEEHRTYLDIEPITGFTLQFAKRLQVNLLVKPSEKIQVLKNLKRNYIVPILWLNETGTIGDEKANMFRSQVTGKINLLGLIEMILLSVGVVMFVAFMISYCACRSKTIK
T3 sequence (Q08857 whole entry): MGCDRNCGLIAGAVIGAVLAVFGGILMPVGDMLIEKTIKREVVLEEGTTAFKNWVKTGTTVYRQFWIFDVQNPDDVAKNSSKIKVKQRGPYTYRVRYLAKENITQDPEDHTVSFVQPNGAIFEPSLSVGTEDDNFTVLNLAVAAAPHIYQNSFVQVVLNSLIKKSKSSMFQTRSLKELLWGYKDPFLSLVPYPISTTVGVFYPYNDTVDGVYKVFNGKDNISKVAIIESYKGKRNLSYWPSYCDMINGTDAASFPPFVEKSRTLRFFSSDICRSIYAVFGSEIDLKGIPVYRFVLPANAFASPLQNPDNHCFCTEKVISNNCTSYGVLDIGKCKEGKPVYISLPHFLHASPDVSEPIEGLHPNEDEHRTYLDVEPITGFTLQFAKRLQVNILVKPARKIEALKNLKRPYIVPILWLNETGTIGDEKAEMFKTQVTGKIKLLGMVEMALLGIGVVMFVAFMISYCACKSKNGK

B1: 20G04 (antibody, human IgG1, V domains shown)
VH: QIQLVQSGPELVKPGASVKISCETSGHTFTEYTMHWVKQSHGKSLEWIGGIYPNNGATKYNQKFKGKATLTVDKSSSTAYMELRSLTSEDSAVYYCARDRYDVWFAYWGQGTLVTVSA
VL: ETTVTQSPASLSVATGEKVTIRCITSTDIDDDMNWYQQKPGEPPKLLISEGNTLRPGVPSRFSSGGYGTDFVFTVENMLSEDVADYYCLQSDNLPLTFGAGTKLELK
notes: Chimeric: mouse variable regions on human IgG1 LALA (L234A/L235A)
The EC50 is the concentration that produces a half-maximal response. On to B1, for which, in test [1], the binding result is reported as “binds”. In addition, the EC50 in test [2] was 5.03 nM; in test [3], 18.2 nM.
